± gives the uncertainty stated by the source.
B1: Membrane-associated guanylate kinase, WW and PDZ domain-containing protein 2, residues 601 to 682; numbered along this chain, Q86UL8 (parent)
chain: AELMTLTIVKGAQGFGFTIADSPTGQRVKQILDIQGCPGLCEGDLIVEINQQNVQNLSHTEVVDILKDCPIGSETSLIIHRG

Variants of: B1
Assay: abundance fitness (aPCA) (normalised: wild type 0, dead -1); higher = more abundant; growth selection in yeast, the domain comes from the species named
Conditions: Homo sapiens
Variant S76R has an abundance fitness of -0.021 ± 0.054. I71Q showed an abundance fitness of -0.161 ± 0.096. Work on I71C yielded an abundance fitness of -0.101 ± 0.23. I71T gave an abundance fitness of -0.038 ± 0.15. In the case of I71D, the abundance fitness is reported as -0.101 ± 0.17. Work on I71A yielded an abundance fitness of -0.165 ± 0.1. I71P showed an abundance fitness of -0.052 ± 0.11. Variant I71G has an abundance fitness of 0.038 ± 0.074. Variant I71R has an abundance fitness of -0.082 ± 0.076. I71L gave an abundance fitness of -0.099 ± 0.1. Work on I71F yielded an abundance fitness of -0.004 ± 0.21. I71H showed an abundance fitness of -0.18 ± 0.23. For I71E, the abundance fitness was -0.033 ± 0.11. Variant I71M has an abundance fitness of -0.004 ± 0.099. With I71K the abundance fitness was -0.117 ± 0.24. I71V gave an abundance fitness of 0.006 ± 0.089. For D68Y, the abundance fitness was 0.011 ± 0.24. Variant D68Q has an abundance fitness of 0.07 ± 0.11. Variant D68H has an abundance fitness of 0.222 ± 0.28. With D68A the abundance fitness was -0.14 ± 0.15. In the case of D68M, the abundance fitness is reported as 0.027 ± 0.15. D68C showed an abundance fitness of -0.101 ± 0.14. With D68R the abundance fitness was -0.136 ± 0.068. D68I gave an abundance fitness of -0.271 ± 0.18. Variant D68W has an abundance fitness of -0.166 ± 0.15. D68F showed an abundance fitness of -0.304 ± 0.5. With D68G the abundance fitness was -0.057 ± 0.1. D68L showed an abundance fitness of -0.138 ± 0.086. In the case of D68P, the abundance fitness is reported as -0.233 ± 0.26. In the case of D68T, the abundance fitness is reported as -0.153 ± 0.095. With D68E the abundance fitness was -0.022 ± 0.088. D68K showed an abundance fitness of 0.005 ± 0.13. Work on D68V yielded an abundance fitness of 0.046 ± 0.082. Work on D64C yielded an abundance fitness of -0.238 ± 0.18. With D64Y the abundance fitness was 0.08 ± 0.19. With D64N the abundance fitness was -0.067 ± 0.3. D64W gave an abundance fitness of -0.047 ± 0.1. D64Q gave an abundance fitness of -0.057 ± 0.11. For D64V, the abundance fitness was -0.06 ± 0.063. D64K showed an abundance fitness of 0.011 ± 0.16. D64H showed an abundance fitness of 0.195 ± 0.3. With D64T the abundance fitness was -0.126 ± 0.12. Variant D64L has an abundance fitness of -0.128 ± 0.087. In the case of D64M, the abundance fitness is reported as -0.308 ± 0.14. Work on D64I yielded an abundance fitness of -0.183 ± 0.18. In the case of D64F, the abundance fitness is reported as -0.112 ± 0.2. Work on D64P yielded an abundance fitness of -0.202 ± 0.2. With D64G the abundance fitness was -0.059 ± 0.071. D64S showed an abundance fitness of 0.013 ± 0.085. In the case of D64A, the abundance fitness is reported as -0.191 ± 0.09. I65D gave an abundance fitness of -0.542 ± 0.13. Variant I65A has an abundance fitness of -0.048 ± 0.037. Variant I65V has an abundance fitness of 0.006 ± 0.037. With I65P the abundance fitness was -1.32 ± 0.22. I65G gave an abundance fitness of -0.295 ± 0.038. I65C gave an abundance fitness of -0.053 ± 0.063. With I65Y the abundance fitness was -0.047 ± 0.063. With I65Q the abundance fitness was -0.079 ± 0.047. Variant I65M has an abundance fitness of -0.051 ± 0.05. Work on I65T yielded an abundance fitness of -0.038 ± 0.048. For I65S, the abundance fitness was -0.059 ± 0.04. For I65K, the abundance fitness was -0.069 ± 0.057. Variant I65N has an abundance fitness of -0.256 ± 0.087. I65E gave an abundance fitness of -0.146 ± 0.052. For I65L, the abundance fitness was -0.072 ± 0.037. I65H showed an abundance fitness of -0.242 ± 0.093. Variant I65R has an abundance fitness of -0.064 ± 0.034. I65F gave an abundance fitness of -0.088 ± 0.074. Variant L77K has an abundance fitness of -0.892 ± 0.31. L77W gave an abundance fitness of -0.072 ± 0.075. In the case of L77G, the abundance fitness is reported as -1.02 ± 0.15. L77V gave an abundance fitness of -0.03 ± 0.062. For L77T, the abundance fitness was -0.132 ± 0.12. In the case of L77I, the abundance fitness is reported as 0.24 ± 0.29. L77E gave an abundance fitness of -1.12 ± 0.38. Work on L77F yielded an abundance fitness of -0.05 ± 0.38. L77R showed an abundance fitness of -1.17 ± 0.28. With L77S the abundance fitness was -0.583 ± 0.15. Work on L77P yielded an abundance fitness of -0.86 ± 0.24. Work on L77A yielded an abundance fitness of -0.124 ± 0.07. Variant L77M has an abundance fitness of 0.008 ± 0.12. L77D gave an abundance fitness of -1.28 ± 0.48. For V62Q, the abundance fitness was -0.336 ± 0.13. V62W gave an abundance fitness of -1.03 ± 0.4. In the case of V62H, the abundance fitness is reported as -0.598 ± 0.35. V62C gave an abundance fitness of 0.181 ± 0.29. V62M showed an abundance fitness of -0.181 ± 0.12. Work on V62F yielded an abundance fitness of -0.345 ± 0.31. Work on V62T yielded an abundance fitness of -0.03 ± 0.13. With V62D the abundance fitness was -0.985 ± 0.35. V62L showed an abundance fitness of -0.114 ± 0.087. For V62G, the abundance fitness was -1.07 ± 0.17. For V62R, the abundance fitness was -0.91 ± 0.14. With V62A the abundance fitness was -0.079 ± 0.089. Work on V62E yielded an abundance fitness of -0.999 ± 0.49. Variant L66C has an abundance fitness of -0.398 ± 0.15. Work on L66E yielded an abundance fitness of -0.522 ± 0.33. L66G showed an abundance fitness of -0.673 ± 0.28. Variant L66A has an abundance fitness of -0.571 ± 0.12. L66Q gave an abundance fitness of -0.557 ± 0.31. L66S gave an abundance fitness of -0.63 ± 0.2. Variant L66W has an abundance fitness of -0.521 ± 0.12. Work on L66R yielded an abundance fitness of -1.11 ± 0.24. In the case of L66T, the abundance fitness is reported as -0.589 ± 0.47. For L66Y, the abundance fitness was -0.736 ± 0.45. L66F showed an abundance fitness of 0.053 ± 0.18. For L66V, the abundance fitness was -0.235 ± 0.13. With P70W the abundance fitness was -0.087 ± 0.12. For P70K, the abundance fitness was -0.056 ± 0.24. Work on P70S yielded an abundance fitness of -0.001 ± 0.12. Variant P70C has an abundance fitness of -0.315 ± 0.19. In the case of P70G, the abundance fitness is reported as -0.185 ± 0.076. P70L gave an abundance fitness of -0.085 ± 0.11. P70M showed an abundance fitness of -0.098 ± 0.12. With P70A the abundance fitness was -0.227 ± 0.099. Variant P70T has an abundance fitness of -0.108 ± 0.12. P70Q showed an abundance fitness of -0.084 ± 0.13. P70R gave an abundance fitness of -0.003 ± 0.067. With P70N the abundance fitness was -0.089 ± 0.23. With P70E the abundance fitness was 0.007 ± 0.082. With P70F the abundance fitness was -0.074 ± 0.12. P70H gave an abundance fitness of -0.107 ± 0.11. P70D gave an abundance fitness of 0.077 ± 0.29. Work on I79V yielded an abundance fitness of -0.102 ± 0.073. Variant I79M has an abundance fitness of -0.005 ± 0.16. I79T showed an abundance fitness of -0.063 ± 0.12. Variant I79Q has an abundance fitness of -0.73 ± 0.27. Work on I79W yielded an abundance fitness of -0.467 ± 0.17. For I79A, the abundance fitness was -0.214 ± 0.14. I79L showed an abundance fitness of 0.036 ± 0.077. In the case of I79R, the abundance fitness is reported as -0.24 ± 0.064. Work on I79G yielded an abundance fitness of -0.42 ± 0.11. I79K showed an abundance fitness of -0.534 ± 0.16. For I79S, the abundance fitness was -0.314 ± 0.11. In the case of I79C, the abundance fitness is reported as -0.115 ± 0.12. With I79F the abundance fitness was -0.046 ± 0.17. With G72R the abundance fitness was 0.006 ± 0.065. G72K gave an abundance fitness of -0.139 ± 0.099. Work on G72S yielded an abundance fitness of 0.004 ± 0.083. Variant G72F has an abundance fitness of -0.353 ± 0.16. Work on G72N yielded an abundance fitness of -0.189 ± 0.34. Work on G72E yielded an abundance fitness of -0.018 ± 0.097. G72Q showed an abundance fitness of 0.003 ± 0.17. Work on G72C yielded an abundance fitness of 0.046 ± 0.089. In the case of G72L, the abundance fitness is reported as -0.003 ± 0.079. Variant G72Y has an abundance fitness of -0.419 ± 0.24. G72D showed an abundance fitness of 0.073 ± 0.089. Variant G72T has an abundance fitness of -0.147 ± 0.092. Variant G72A has an abundance fitness of 0.002 ± 0.061. For G72W, the abundance fitness was -0.243 ± 0.1. G72H showed an abundance fitness of -0.356 ± 0.28. Variant G72M has an abundance fitness of 0.059 ± 0.089. G72P showed an abundance fitness of 0.022 ± 0.12. Work on V63K yielded an abundance fitness of -0.095 ± 0.21. V63L gave an abundance fitness of -0.278 ± 0.2. With V63H the abundance fitness was -0.493 ± 0.21. For V63Q, the abundance fitness was -0.087 ± 0.23. V63A gave an abundance fitness of 0.001 ± 0.067. With V63R the abundance fitness was -0.072 ± 0.068. Work on V63D yielded an abundance fitness of 0.145 ± 0.41. V63C gave an abundance fitness of -0.192 ± 0.15. With V63G the abundance fitness was -0.067 ± 0.074. In the case of V63S, the abundance fitness is reported as -0.099 ± 0.13. In the case of V63W, the abundance fitness is reported as -0.017 ± 0.11. For V63M, the abundance fitness was 0.041 ± 0.11. V63E showed an abundance fitness of -0.028 ± 0.12. In the case of V63F, the abundance fitness is reported as -0.432 ± 0.38.
